Experiment [1] concerns the target T1, GST-MUPP1 PDZ domain 7 (Homo sapiens (Human)), O75970.
T1 chain: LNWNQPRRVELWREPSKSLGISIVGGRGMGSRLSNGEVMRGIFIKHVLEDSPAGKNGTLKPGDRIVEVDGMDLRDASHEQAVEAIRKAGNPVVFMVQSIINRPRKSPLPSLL
The experiment is described as follows: G' assay. Also: key of the grades not given here.

The target of experiment [2] is T2, GST-MINT1 PDZ domain 1 (Mus musculus (Mouse)), B2RUJ5.
T2 chain: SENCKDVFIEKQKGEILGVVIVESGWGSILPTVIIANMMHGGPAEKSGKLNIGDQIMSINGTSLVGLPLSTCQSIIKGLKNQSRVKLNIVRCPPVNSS
As to the kind of experiment: G assay titration, PDZ 5 ug/ml.

Experiment [3] deals with T3, GST-SYNTENIN PDZ domain 1 (Homo sapiens (Human)), O00560.
T3 chain: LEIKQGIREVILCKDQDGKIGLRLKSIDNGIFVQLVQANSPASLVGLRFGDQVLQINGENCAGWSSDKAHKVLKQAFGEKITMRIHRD
The experiment is described as follows: G assay titration, PDZ 5 ug/ml.

The target of experiment [4] is T4, GST-MINT1 PDZ domain 2 (Mus musculus (Mouse)), B2RUJ5.
T4 chain: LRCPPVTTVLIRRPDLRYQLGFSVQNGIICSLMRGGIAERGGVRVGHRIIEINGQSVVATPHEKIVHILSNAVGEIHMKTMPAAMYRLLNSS
As to the kind of experiment: G assay titration, PDZ 5 ug/ml.

The target of experiment [5] is T5, GST-SITAC-18 PDZ domain 2 (Homo sapiens (Human)), Q9H190.
T5 chain: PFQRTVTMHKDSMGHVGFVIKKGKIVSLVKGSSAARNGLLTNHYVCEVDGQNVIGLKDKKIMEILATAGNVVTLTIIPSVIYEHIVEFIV
The experiment is described as follows: G assay titration, PDZ 5 ug/ml.

For experiment [6], the target named is T6, GST-ZO-1 PDZ domain 1 (Rattus norvegicus (Rat)), A0A0G2.
T6 chain: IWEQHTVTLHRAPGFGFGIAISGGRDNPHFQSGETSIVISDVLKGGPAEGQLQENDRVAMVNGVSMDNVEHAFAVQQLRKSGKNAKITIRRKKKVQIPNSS
As to the kind of experiment: G assay titration, PDZ 5 ug/ml.

In experiment [7] the target is T7, GST-FLJ 10324 PDZ domain 1 [GST: P08515].
T7 chain: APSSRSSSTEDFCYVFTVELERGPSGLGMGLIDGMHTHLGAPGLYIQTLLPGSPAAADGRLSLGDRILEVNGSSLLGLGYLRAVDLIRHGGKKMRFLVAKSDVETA
As to the kind of experiment: G assay titration, PDZ 5 ug/ml.

The target of experiment [8] is T8, GST-KIAA0807(S) PDZ domain 1 (Homo sapiens (Human)), Q6P0Q8.
T8 chain: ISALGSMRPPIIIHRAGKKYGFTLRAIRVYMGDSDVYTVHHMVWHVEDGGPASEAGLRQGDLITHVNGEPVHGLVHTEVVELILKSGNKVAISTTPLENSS
As to the kind of experiment: G assay titration, PDZ 5 ug/ml.

For experiment [9], the target named is T9, GST-MUPP1 PDZ domain 11 (Homo sapiens (Human)), O75970.
T9 chain: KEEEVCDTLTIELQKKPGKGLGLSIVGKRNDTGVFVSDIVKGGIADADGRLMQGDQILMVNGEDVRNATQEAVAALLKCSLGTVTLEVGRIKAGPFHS
The experiment is described as follows: G assay titration, PDZ 5 ug/ml.

Experiment [10] addresses T10, GST-NeDLG PDZ domain 2 (Rattus norvegicus (Rat)), Q62936.
T10 chain: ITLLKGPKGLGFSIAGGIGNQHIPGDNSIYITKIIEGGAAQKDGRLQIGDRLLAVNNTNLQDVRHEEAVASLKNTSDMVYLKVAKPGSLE
As to the kind of experiment: G assay titration, PDZ 5 ug/ml.

The target of experiment [11] is T11, GST-Outer Membrane PDZ domain 1 (Homo sapiens (Human)), P57105.
T11 chain: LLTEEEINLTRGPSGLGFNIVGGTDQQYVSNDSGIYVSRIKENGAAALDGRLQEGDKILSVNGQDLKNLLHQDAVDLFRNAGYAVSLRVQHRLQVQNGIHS
The experiment is described as follows: G assay titration, PDZ 5 ug/ml.

Experiment [12] deals with T12, GST-PTPL1 PDZ domain 2 (Homo sapiens (Human)), Q12923.
T12 chain: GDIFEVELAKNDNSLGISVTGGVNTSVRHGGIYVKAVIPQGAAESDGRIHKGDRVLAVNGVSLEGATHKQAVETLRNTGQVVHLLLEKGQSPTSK
As to the kind of experiment: G assay titration, PDZ 5 ug/ml.

The target of experiment [13] is GST-BAI-1 Associated Protein PDZ domain 2 (Mus musculus (Mouse)), Q6RHR9. As to the kind of experiment: G assay titration, PDZ 0.3 ug/ml.
The target of experiment [14] is GST-BAI-1 Associated Protein PDZ domain 4 (Homo sapiens (Human)), Q96QZ7. The experiment is described as follows: G assay titration, PDZ 0.3 ug/ml.
In experiment [15] the target is T13, GST-DLG1 PDZ domain 2 (Homo sapiens), Q12959.
T13 chain: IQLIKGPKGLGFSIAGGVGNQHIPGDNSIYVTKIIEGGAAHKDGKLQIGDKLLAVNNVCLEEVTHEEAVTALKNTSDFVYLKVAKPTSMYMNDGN
The experiment is described as follows: G assay titration, PDZ 0.3 ug/ml.

The target of experiment [16] is T14, GST-PDZ-73 PDZ domain 2 (Homo sapiens (Human)), Q9Y6N9.
T14 chain: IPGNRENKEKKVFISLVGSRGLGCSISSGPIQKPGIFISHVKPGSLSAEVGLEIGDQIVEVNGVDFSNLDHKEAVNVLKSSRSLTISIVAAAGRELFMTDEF
As to the kind of experiment: G' assay. Also: key of the grades not given here.

For experiment [17], the target named is T15, GST-MINT1 PDZ domains 1, 2, Q02410.
T15 chain: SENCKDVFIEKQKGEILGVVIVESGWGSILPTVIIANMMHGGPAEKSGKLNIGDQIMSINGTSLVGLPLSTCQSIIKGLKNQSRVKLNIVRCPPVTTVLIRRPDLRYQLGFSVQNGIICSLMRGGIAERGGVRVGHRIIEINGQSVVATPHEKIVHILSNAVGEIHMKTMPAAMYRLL
As to the kind of experiment: G assay titration, PDZ 5 ug/ml.

Chain of GST-BAI-1 Associated Protein PDZ domain 4 (Homo sapiens (Human)), Q96QZ7 (Q96QZ7 other isoform, or with tags, fused parts or gaps): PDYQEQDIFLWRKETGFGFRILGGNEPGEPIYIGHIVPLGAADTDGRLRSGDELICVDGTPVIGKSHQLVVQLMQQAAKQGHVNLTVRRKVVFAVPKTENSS
Chain of GST-BAI-1 Associated Protein PDZ domain 2 (Mus musculus (Mouse)), Q6RHR9 (Q6RHR9 455-558): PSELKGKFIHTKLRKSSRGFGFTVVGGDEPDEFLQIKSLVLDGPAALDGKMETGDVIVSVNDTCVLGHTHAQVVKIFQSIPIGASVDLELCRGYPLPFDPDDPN

In general, Kd refers to a measure of binding affinity in units of concentration. Read a low Kd as higher affinity. KTMPAAMYRLLTAQEQPVYI (modifications not checked) [MINT-1]: in experiment [1], the Classification stood at 3 A450 class. The results for the Kd in [2] and in [3] were 2000 nM and 800 nM, respectively.

As to ILNSIQVMRAQMNQIQSVEV (modifications not checked) [ephrin B2], the Kd in experiment [4] worked out at 3000 nM; in experiment [5], 5000 nM; in [6], 6000 nM.

For VGTLLLERVIFPSVKIATLV (modifications not checked) [AdenoE4 typ9], the dissociation constant (Kd) in experiment [7] was 100 nM; in experiment [8], 200 nM; in experiment [9], 100 nM; in experiment [10] it was 100 nM; in [11], 100 nM; in experiment [12], 200 nM. Also, the results for the Kd in experiment [13], in experiment [14] and in experiment [15] were 20 nM, 100 nM and 30 nM, respectively.

On to PIPAGGCTFSGIFPTLTSPL (modifications not checked) [KIA 1481], for which the Classification in experiment [16] stood at 1 A450 class. Also, the equilibrium dissociation constant (Kd) in experiment [17] came to 800 nM.

Source of the values: patent US20050282743A1, “Molecular interactions in cells” (Arbor Vita Corporation, priority 2001, published 2005).
